Assay [1] deals with T1, mNotch1ECD-Fc (mouse, UniProt Q01705 19-1725).
T1 construct: extracellular domain; Immobilized on the SPR chip; also called mouse full length notch extracellular domain; not shown: Fc part
Kind of assay: SPR, signal on immobilized mNotch1ECD-Fc against immobilized BSA negative control at the same Tan 6 concentrations. As to the method:
(§1) FIG. 25. Open surface plasmon resonance (SPR) binding experiments of DLL1 Tandem 6× against immobilized mouse full length notch extracellular domain (Top) and BSA negative control (bottom). DLL1 Tandem 6× was injected at concentrations of 2.2 μM, 0.45 μM, 0.22 μM, 0.11 μM, and 0 μM (HBS buffer only). Signal to noise of these binding experiments were 3 to 1.
(§2) The signal:noise of binding to Notch1 versus BSA is about 3:1 at the same concentrations.

Assay [2] addresses T1, mNotch1ECD-Fc. Kind of assay: SPR (open SPR), mNotch1ECD-Fc immobilized, Tan 6 injected at 2.2, 0.45, 0.22, 0.11 and 0 µM; apparent KD. As for the experimental part: as §1, §2

T1 sequence (Q01705 19-1725): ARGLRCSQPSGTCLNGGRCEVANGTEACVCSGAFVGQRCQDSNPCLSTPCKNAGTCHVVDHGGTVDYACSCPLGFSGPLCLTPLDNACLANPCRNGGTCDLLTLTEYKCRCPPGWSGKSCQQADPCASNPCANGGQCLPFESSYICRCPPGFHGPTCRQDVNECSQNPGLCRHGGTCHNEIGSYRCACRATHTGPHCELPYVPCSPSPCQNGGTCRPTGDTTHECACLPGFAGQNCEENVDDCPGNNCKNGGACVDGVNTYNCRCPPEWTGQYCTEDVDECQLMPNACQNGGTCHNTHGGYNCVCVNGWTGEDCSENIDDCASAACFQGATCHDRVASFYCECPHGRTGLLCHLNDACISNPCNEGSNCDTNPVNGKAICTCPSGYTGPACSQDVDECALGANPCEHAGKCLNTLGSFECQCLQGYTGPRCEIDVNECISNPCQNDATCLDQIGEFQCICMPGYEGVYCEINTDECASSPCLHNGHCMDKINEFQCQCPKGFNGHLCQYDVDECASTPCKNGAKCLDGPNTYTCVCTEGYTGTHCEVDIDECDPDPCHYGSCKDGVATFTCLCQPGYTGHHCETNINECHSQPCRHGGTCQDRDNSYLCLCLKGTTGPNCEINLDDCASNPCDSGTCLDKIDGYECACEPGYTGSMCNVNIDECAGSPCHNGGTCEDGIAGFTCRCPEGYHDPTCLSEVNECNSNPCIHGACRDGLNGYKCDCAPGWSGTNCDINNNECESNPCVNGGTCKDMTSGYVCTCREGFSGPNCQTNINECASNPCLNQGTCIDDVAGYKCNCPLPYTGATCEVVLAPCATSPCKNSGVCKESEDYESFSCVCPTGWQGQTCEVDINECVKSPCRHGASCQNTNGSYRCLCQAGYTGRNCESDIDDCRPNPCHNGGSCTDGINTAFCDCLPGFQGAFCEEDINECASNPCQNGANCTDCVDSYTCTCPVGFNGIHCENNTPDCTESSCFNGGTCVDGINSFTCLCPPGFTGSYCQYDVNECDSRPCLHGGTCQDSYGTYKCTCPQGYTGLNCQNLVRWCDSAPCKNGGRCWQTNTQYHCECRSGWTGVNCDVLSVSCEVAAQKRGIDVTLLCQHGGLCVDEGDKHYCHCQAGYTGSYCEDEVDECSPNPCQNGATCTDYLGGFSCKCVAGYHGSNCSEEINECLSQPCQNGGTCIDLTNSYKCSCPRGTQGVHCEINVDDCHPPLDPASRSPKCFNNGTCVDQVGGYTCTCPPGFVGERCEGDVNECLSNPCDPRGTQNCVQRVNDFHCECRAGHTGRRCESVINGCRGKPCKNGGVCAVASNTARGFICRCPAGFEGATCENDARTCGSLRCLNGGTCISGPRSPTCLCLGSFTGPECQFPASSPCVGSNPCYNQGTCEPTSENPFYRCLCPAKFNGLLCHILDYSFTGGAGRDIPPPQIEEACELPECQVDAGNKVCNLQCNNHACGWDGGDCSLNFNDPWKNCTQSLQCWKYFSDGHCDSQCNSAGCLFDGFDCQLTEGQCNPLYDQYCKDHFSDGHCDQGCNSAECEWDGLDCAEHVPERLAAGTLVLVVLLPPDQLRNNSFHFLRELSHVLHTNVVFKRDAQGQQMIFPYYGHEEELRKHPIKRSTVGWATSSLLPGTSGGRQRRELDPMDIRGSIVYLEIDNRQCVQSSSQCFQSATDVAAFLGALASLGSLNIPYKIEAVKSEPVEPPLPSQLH

B1: MuDLL1.DSL-EGF12.Tan 6 (NL 99) (ligand)
chain: MAAHHHHHHGGENLYFQGFVCDEHYYGEGCSVFCRPRDDAFGHFTCGDRGEKMCDPGWKGQYCTDPICLPGCDDQHGYCDKPGECKCRVGWQGRYCDECIRYPGCLHGTCQQPWQCNCQEGWGGLFCNQGSSGSSGFVCDEHYYGEGCSVFCRPRDDAFGHFTCGDRGEKMCDPGWKGQYCTDPICLPGCDDQHGYCDKPGECKCRVGWQGRYCDECIRYPGCLHGTCQQPWQCNCQEGWGGLFCNQGSSGSSGFVCDEHYYGEGCSVFCRPRDDAFGHFTCGDRGEKMCDPGWKGQYCTDPICLPGCDDQHGYCDKPGECKCRVGWQGRYCDECIRYPGCLHGTCQQPWQCNCQEGWGGLFCNQGSSGSSGFVCDEHYYGEGCSVFCRPRDDAFGHFTCGDRGEKMCDPGWKGQYCTDPICLPGCDDQHGYCDKPGECKCRVGWQGRYCDECIRYPGCLHGTCQQPWQCNCQEGWGGLFCNQGSSGSSGFVCDEHYYGEGCSVFCRPRDDAFGHFTCGDRGEKMCDPGWKGQYCTDPICLPGCDDQHGYCDKPGECKCRVGWQGRYCDECIRYPGCLHGTCQQPWQCNCQEGWGGLFCNQGSSGSSGFVCDEHYYGEGCSVFCRPRDDAFGHFTCGDRGEKMCDPGWKGQYCTDPICLPGCDDQHGYCDKPGECKCRVGWQGRYCDECIRYPGCLHGTCQQPWQCNCQEGWGGLFCNQ
notes: also called DLL1 Tandem 6×; hexamer
B1: the “signal:noise of binding to Notch1 versus BSA” value with mNotch1ECD-Fc [1] was ~3 ratio (Notch1 : BSA). The Kd in the assay with mNotch1ECD-Fc [2] came out at 1500 nM.
